Test results: patent US5604198A, “Method to enhance permeability of the blood/brain blood/nerve barriers to therapeutic agents” (priority 1994, dated 1997)

What was measured:
[1] = rat; for Relative increase of PS vs ALB, blood nerve barrier / Relative increase of Vp vs ALB, blood nerve barrier / Residual endoneurial plasma volume (Vp) of the blood nerve barrier / PS values across the blood nerve and blood brain barrier: in vivo; for Permeability coefficient-surface area product (PS) of the blood nerve barrier: not told, iv
Protocol: (§1) Male Sprague-Dawley rats (24-weeks-old) (460-500 g) were obtained from Bio Lab (St. Paul) and were used to determine the PS and Vp measurements. All animals were kept for a minimum of 3 days under standard housing conditions and feeding schedules prior to the experiments.
Briefly, a bolus of PBS containing ^125 I labelled carrier molecule was injected rapidly into the catheterized brachial vein of pentobarbital anesthetized rats. Blood was sampled during the next 30, 60, or 240 minutes from the brachial artery, depending on the carrier molecule being evaluated. Prior to the sacrifice of the animal at time sequences of 60 or 120 seconds, the second isotope-labelled carrier molecule (^131 I) was administered intravenously to serve as the residual plasma volume indicator (Vp).
After the final blood sample was collected, the sciatic nerves were rapidly removed and desheathed. Similarly, the brain was removed followed by the meninges. The brain was dissected into the cortex, caudal putamen, hippocampus, thalamus, brain stem, and cerebellum. The tissue was then lyophilized, and the dry weight was determined with a microbalance. These weights were then converted to their respective wet weights with wet weight/dry weight ratios previously determined for desheathed rat sciatic nerve and for the different brain regions. Tissue and plasma samples were assayed for ^125 I and ^131 I radioactivity in a 2-channel gamma counter. Radioactivity was corrected for crossover of ^131 I activity into the ^125 I channel and background activity. The Vp and PS measurements were calculated as described previously in Poduslo et al., Proc. Natl. Acad. Sci. U.S.A., 89, 2218 (1992). […] Statistical evaluations were done using Student's two-tailed paired t-test. Significance was accepted at the p<0.05 level.

[2] = rat, in vivo
Protocol: as §1
Briefly, a bolus of PBS containing ^125 I labelled carrier molecule was injected rapidly into the catheterized brachial vein of pentobarbital anesthetized rats. Blood was sampled during the next 30, 60, or 240 minutes from the brachial artery, depending on the carrier molecule being evaluated. […]
After the final blood sample was collected, the sciatic nerves were rapidly removed and desheathed. […] The tissue was then lyophilized, and the dry weight was determined with a microbalance. These weights were then converted to their respective wet weights with wet weight/dry weight ratios previously determined for desheathed rat sciatic nerve and for the different brain regions. Tissue and plasma samples were assayed for ^125 I and ^131 I radioactivity in a 2-channel gamma counter. Radioactivity was corrected for crossover of ^131 I activity into the ^125 I channel and background activity. The Vp and PS measurements were calculated as described previously in Poduslo et al., Proc. Natl. Acad. Sci. U.S.A., 89, 2218 (1992). […]

Substance | Relative increase of PS vs ALB, blood nerve barrier [1] | Relative increase of Vp vs ALB, blood nerve barrier [1] | Residual endoneurial plasma volume (Vp) of the blood nerve barrier [1] [µL/g] | Permeability coefficient-surface area product (PS) of the blood nerve barrier [1] [ml/g/sec × 10^6] | PS values across the blood nerve and blood brain barrier [1] | PS values in the different brain regions [2] | Vp values in the different brain regions [2] [µL/g]
calmodulin | 211.3 | 0.9 | 1.66 ± 0.32 | 21.34 ± 3.40 | – | – | –
ceruloplasmin | 82.4 | 1.0 | 1.98 ± 0.38 | – | 1-10 ×10^-6 ml/g/sec | – | –
cytochrome c | 73.6 | 1.0 | 1.96 ± 0.32 | 7.43 ± 3.68 | 1-10 ×10^-6 ml/g/sec | – | –
hemoglobin | 65.3 | 1.0 | 1.91 ± 0.35 | 6.60 ± 1.33 | 1-10 ×10^-6 ml/g/sec | – | –
lysozyme | 66.4 | 1.3 | 2.57 ± 0.52 | 6.71 ± 1.65 | 1-10 ×10^-6 ml/g/sec | – | –
substance P [SP] | – | – | 14.87 ± 3.53 | – | – | 27.68-36.53 ×10^-6 ml/g/s | 11.03 to 21.29
ubiquitin | 228.9 | 0.9 | 1.84 ± 0.51 | – | – | – | –
